Test results: patent US20200283507A1 (US Dept. of Health and Human Services, published 2020)

T1: Hu/NoV/GI.1/Norwalk/1968/U.S. VLP (human norovirus GI.1, UniProt Q83884 1-530 (Norovirus (strain entry), limits assumed))
T1 construct: mature; full-length VP1 (ORF2) assembled as virus-like particle in baculovirus/Sf9; also called Norwalk VLP; NV
T1 sequence (looked up): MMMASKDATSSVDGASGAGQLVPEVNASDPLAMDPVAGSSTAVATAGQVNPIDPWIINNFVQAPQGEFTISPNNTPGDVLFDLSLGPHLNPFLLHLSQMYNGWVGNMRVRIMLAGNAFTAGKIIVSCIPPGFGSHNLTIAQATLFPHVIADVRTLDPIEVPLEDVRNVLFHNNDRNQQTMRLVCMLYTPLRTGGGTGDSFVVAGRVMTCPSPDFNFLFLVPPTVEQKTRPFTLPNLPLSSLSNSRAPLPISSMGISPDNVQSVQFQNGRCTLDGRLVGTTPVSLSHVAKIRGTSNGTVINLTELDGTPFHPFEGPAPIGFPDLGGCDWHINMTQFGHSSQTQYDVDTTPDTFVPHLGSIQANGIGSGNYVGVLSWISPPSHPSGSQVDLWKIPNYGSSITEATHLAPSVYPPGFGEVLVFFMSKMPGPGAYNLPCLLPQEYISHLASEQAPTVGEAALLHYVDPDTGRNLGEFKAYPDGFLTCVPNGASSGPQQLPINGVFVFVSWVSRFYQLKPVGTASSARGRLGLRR

B1: VHH 9.8 (VHH)
VHH: QVKLQQSGGGLVQAGGSLRLSCAASGTFSRYAMGWFRQAPGKEREFVAAINWTGGSTYYADSVKGRFTISGDNAKNTVYLQMNSLKPGDTAVYYCAAEVHPGDYGLTYMQSQYEYDYWGQGTQVTVSS
notes: llama VHH, Norwalk library; His6 tag
B2: VHH 2.1 (VHH)
VHH: QVQLQESGGGLVQAGGSLRLSCAASGLTFSSYAMGWFHQAPGKEREFVAAINWSGRDTYYADSVKGRFTISRDNRKNTVYLQMNSLKPEDTAVYYCAAAEFFSSGDPLPGMDYWGKGTLVTVSS
notes: llama VHH, MD2004 library; pHEN6, C-terminal His6 tag; also called clone 2.1
B3: VHH 16 (VHH)
VHH: QVKLQQSGGGLVQPGGSLRLTCAASGFPFSTYAIRWVRRPPGKGLEWVSTIHPDFTTNYADSVSRRFTISRDNAKNTVYLQMNSLKPEDTAVYYCSRGVSGERGQGTQVTVSS
notes: MD2004 library, subtractive biopanning; His6 tag; also called 16.1; clone 16
B4: VHH 14.5 (VHH)
VHH: DVQLQASGGGLVQAGGSLRLSCVASARTFSSYAMGWFRQAPGKEREFVAAISWSGASTDYADSVKGRFTISRDNAKKTVYLQMNTLKPEDTAVYYCAAHHITPTGSYYYSEPLPVDMVYDYWGQGTQVTVSS
notes: llama VHH, Norwalk library; pHEN6, C-terminal His6 tag
B5: VHH 11.2 (VHH)
VHH: DVQLQASGGGLVQAGGSLRLSCAASTSRFSSYAMGWSRQAPGKQRELVASISSSGLTTNYADSVKGRFTISRDNAKNTVYLQMNSLKPEDTAVYYCKADGRRYSLNEYWGQGTQVTVSS
notes: llama VHH, Norwalk library; pHEN6, C-terminal His6 tag; also called VHH 11.1
B6: VHH 1 (VHH)
VHH: QVQLQQSGGGLVQAGGSLRLSCAASGLAFSSYAITWLRQAPGTEREFVALISGSGSSTYYADSVKGRFTISRNNAKNTVYLQMNSLKPEDTAVYYCTASEFLLHPPPPNQKYDYWGQGTQVTVSS
notes: llama VHH, MD2004 (GII.4) library; pHEN6, C-terminal His6 tag; also called 1.1; clone 1
B7: VHH 8.1 (VHH)
VHH: QVKLQESGGGLVQAGGSLRLSCAASGFTFATYAMAWYRQAPGKQRELVASISNFGSTAYGDSVKGRFTISRDNAKNTVYLEMNSLKSEDTAVYYCKRVRDVIGRPELWGQGTQVTVSS
notes: as for B4
B8: VHH 3.2 (VHH)
VHH: QVQLQESGGGLVQPGGSLRLSCAASESTPSINTMGWYRQAPGKERELVATITSGGMTNYADSVKGRFTISRDNGKNTVYLQMNSLEPGDTAVYYCNLKRRDLQARFGGYWGQGTQVTVSS
notes: llama VHH, MD2004 library; pHEN6, C-terminal His6 tag; also called clone 3.2
B9: VHH 12.2 (VHH)
VHH: DVQLQASGGGLVQAGGSLRLSCAASGSTISSYAMAWYRQAPGKRRELVAHISSGGSTNYADSVKGRFTISRDNAKNTVYLQMNSLKPEDTAVYYCNIYYGGDYYYTGVKPNPWGQGTQVTVSS
notes: as for B4

How the values were obtained:
[1] = biological target: T1, Hu/NoV/GI.1/Norwalk/1968/U.S. VLP; assay: blockade ELISA: VLP binding to saliva Ly+
Method: (§1) For this assay saliva positive for Ly antigen collected from a secretor individual was used. Saliva was boiled (95° C.) for 10 minutes immediately after collection, centrifuged for 5 minutes at 13000×g and the supernatants stored at −20° C. until used. ELISA 96 well U bottom polyvinyl plates Dynatech (Nunc, Thermo, EEUU) were coated with 100 μl/well of a 1/400 saliva dilution in 50 μM carbonate-bicarbonate buffer, pH 9.6. The plate was incubated overnight at 37° C. in a wet atmosphere. In parallel, serial two-fold dilutions of VHH starting from 8 ug/ml were mixed with 1.5 ug/ml of NoV VLP Norwalk and MD145 and incubated for 1h at 37° C. After 6 washes and a blocking step with 5% dry milk/0.05% Tween₂₀-PBS, 50 ul of each VHH-VLP mixture was transferred to the reaction plate, in duplicate. The assay was developed using a specific polyclonal antiserum made in guinea pig (1:10,000) followed by a peroxidase labeled anti-guinea pig IgG (1:2,000) and ABTS/H₂O₂ as substrate chromogen (KPL), 100 μl per well. Absorbance at 405 nm was measured. Mean % control binding, EC50 and criteria for determination of a blockade VHH were calculated as described above.

[2] = biological target: T1, Hu/NoV/GI.1/Norwalk/1968/U.S. VLP; assay: blockade ELISA: VLP binding to PGM type III
Method: (§2) Pig Gastric Mucin Type III (PGM) (Sigma Chemicals) was used as a substrate for NoV VLP antibody-blockade assay as previously described. Briefly, PGM was resuspended in PBS at 5 mg/ml and coated onto 96 well U bottom polyvinyl plates Dynatech (Nunc, Thermo, USA) at 10 μg/ml in PBS for 4 hours. Plates were then blocked ON at 4° C. in 5% dry milk in 0.05% Tween₂₀-PBS. […] One hundred μl of VLPs-VHH mix were transferred to the PGM coated plates and incubated for 1 hour. Bound VLPs were detected by specific hyperimmune sera made in guinea pig, followed by anti-guinea pig IgG-HRP (KLP). ABTS/H₂O₂ was used as chromogen/substrate solution. All incubations were performed at room temperature and absorbance at 405 nm was measured. Mean % control binding, EC50 and criteria for determination of a blockade VHH were calculated as described above.

[3] = biological target: T1, Hu/NoV/GI.1/Norwalk/1968/U.S. VLP; assay: VLP ELISA
[4] = biological target: T2, Hu/NoV/GII.4/MD145-12/1997/U.S. VLP (human norovirus GII.4); assay: VLP ELISA
T2 construct: mature; baculovirus VLP; VP2 may be present

[5] = biological target: T3, Hu/NoV/GII.4/MD2004/2004/U.S. VLP (human norovirus GII.4); assay: VLP ELISA
T3 construct: mature; baculovirus VLP; VP2 may be present; also called MD2004 VLP

[6] = biological target: T4, Hu/NoV/GII.4/RockvilleD1/2012/U.S. VLP (human norovirus GII.4); assay: VLP ELISA
T4 construct: mature; baculovirus VLP; VP2 may be present

[7] = biological target: T5, Hu/NoV/GII.4/HS-191/2001/U.S. VLP (human norovirus GII.4); assay: VLP ELISA
T5 construct: mature; baculovirus VLP; VP2 may be present

[8] = biological target: T3, Hu/NoV/GII.4/MD2004/2004/U.S. VLP; assay: blockade ELISA: VLP binding to PGM type III
Method: as §2

[9] = biological target: T6, Hu/NoV/GI.1/P7-587/2007/Stromstad/Sweden VLP (human norovirus GI.1); assay: VLP ELISA
T6 construct: mature; baculovirus VLP; VP2 may be present; also called Norovirus 2007

[10] = biological target: T1, Hu/NoV/GI.1/Norwalk/1968/U.S. VLP; assay: cell-based or functional assay
[11] = biological target: T6, Hu/NoV/GI.1/P7-587/2007/Stromstad/Sweden …; assay: cell-based or functional assay
[12] = biological target: T2, Hu/NoV/GII.4/MD145-12/1997/U.S. VLP; assay: blockade ELISA: VLP binding to saliva Ly+
Method: as §1

[13] = biological target: T2, Hu/NoV/GII.4/MD145-12/1997/U.S. VLP; assay: blockade ELISA: VLP binding to synthetic HBGA H3
[14] = biological target: T7, Hu/NoV/GII.4/CHDC4871/1977/U.S. VLP (human norovirus GII.4); assay: VLP ELISA
T7 construct: mature; baculovirus VLP; VP2 may be present

[15] = biological target: T8, Hu/GII.6/Bethesda/2012/U.S. VLP (human norovirus GII.6); assay: VLP ELISA
T8 construct: mature; baculovirus VLP; VP2 may be present

[16] = biological target: T2, Hu/NoV/GII.4/MD145-12/1997/U.S. VLP; assay: cell-based or functional assay
[17] = biological target: T3, Hu/NoV/GII.4/MD2004/2004/U.S. VLP; assay: cell-based or functional assay

| Binder | EC50 [2] [µg/mL] | minimum concentration of VHH able to recognize 100 ng of VLP [3] [ng/well] | minimum concentration of VHH able to recognize 100 ng of VLP [4] [ng/well] | minimum concentration of VHH able to recognize 100 ng of VLP [5] [ng/well] | minimum concentration of VHH able to recognize 100 ng of VLP [6] [ng/well] | minimum concentration of VHH able to recognize 100 ng of VLP [7] [ng/well] | EC50 [8] [µg/mL] | minimum concentration of VHH able to recognize 100 ng of VLP [9] [ng/well] | HAI titer, 0 Rh- RBC [11] [µg/mL] | also measured |
| --- | --- | --- | --- | --- | --- | --- | --- | --- | --- | --- |
| B1 | 1.14 | 0.5 | – | – | – | – | – | – | – | EC50 [1]: 1.72 µg/mL |
| B2 | – | – | 8 | 0.5 | 0.25 | 0.5 | – | – | – | – |
| B3 | – | – | – | 0.5 | – | – | 0.767 | – | – | binding result [3]: no binding |
| B4 | 0.351 | 0.5 | – | – | – | – | – | 0.5 | 0.05 | EC50 [1]: 1.56 µg/mL; HAI titer, 0 Rh- RBC [10]: 0.78 µg/mL |
| B5 | – | – | – | – | – | – | – | 1 | – | – |
| B6 | – | – | 0.5 | 0.5 | 0.25 | 1 | 0.341 | – | – | EC50 [12]: 2.01 µg/mL; EC50 [13]: 0.85 µg/mL; minimum concentration of VHH able to recognize 100 ng of VLP [14]: 0.25 ng/well |
| B7 | – | – | – | – | – | – | – | 1 | 0.78 | – |
| B8 | – | – | 1 | 2 | 0.5 | 0.5 | 2.3 | – | – | EC50 [12]: 0.917 µg/mL; EC50 [13]: 0.641 µg/mL; minimum concentration of VHH able to recognize 100 ng of VLP [14]: 0.5 ng/well; minimum concentration of VHH able to recognize 100 ng of VLP [15]: 0.5 ng/well; HAI titer, B Rh+ RBC [16]: 0.19 µg/mL; HAI titer, B Rh+ RBC [17]: 0.19 µg/mL |
| B9 | 2.59 | 1 | – | – | – | – | – | 1 | 0.8 | – |
